Assay results reported in paper PMC2762042.

Molecular target: hnRNP G-T RRM (Homo sapiens) (UniProt O75526)
Experiment: EMSA
Settings: EMSA with radio-labelled T7 transcripts and 30 or 100 ng RRM protein; buffer, salt, pH and temperature not given in material

Sequence of hnRNP G-T RRM (Homo sapiens) (O75526 8-86): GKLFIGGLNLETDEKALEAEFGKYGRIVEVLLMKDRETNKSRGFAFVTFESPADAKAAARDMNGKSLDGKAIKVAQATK

## AGGUAUUGGGCUUUGGCUGAGGGCUUUUUGUUGUUGUUGUUGUUGUU [ABwt]
  Kd: 1.7 nM
